Results published in a protein production outcome set (Wang et al. 2014).

Assay: label from the status in PepcDB records

Row | Sequence | protein production
1 | MEKMLSTYIEEAMEFYAIGKGADFKAIIEKGIASCMTTYSTYDRELYKAYALLATYLSNHAFKIIKSRPAFQAMAINCFDQLDSLRQQHDPHLQVTKGFLWMLSSSRAQDADALLISVLRNHPKNILALIGRACLAYNRQDYIGALGYFKSVLLIQPQGMADVWVGIGHCFWKMGELEKAQLSFQIALEHNGQCLNAALALALVKFEHNDEQSYQDGKMLLTAAYKENNKNPDLLSILAGMYYADGNHKLVWSFAGNAIKFTANKHIESRNYFQIAKSYHATGQFESAKKYYLLSAKSAPDGYILPLVGVAQMYLHEGELNRSKAFLESFLTSEPDEPVVMDLLAKIYLEYKCPEKIDKAIEMLVKVVESASYHQNTNSWLNLAFAYEQKRLWAHGVNAYQKAIDIYLSQGHQIPIEWLNNLASSQLMAKMPEKALNTLDDALSKCRVMNSDNKTTNLLSLQYNRGLVLEELHMFTLAAENYKSITKEYSSYHDCYLRLGVMAIQKNNHTQAIEHLKDILVEDNLNMTARTYMGDCFKGLSLDKFATFNYNMILARQSKFTNTYVSMAMGNFCLEKLQNWIAEGNFRAARKQQEKALQCFGKILDCNPKNLWAANGIGAVLSSCNNLSAGGAIFKQIIECGNKCIPAIINSAHIALVSGQYRLAIQTYERCLKDHLPKNRVDVMHCLAKALYDNGDARKAKMWLLKVRHLVPHDPFVIFNLGLAIKKETEQALALPRPQLDELMGLDGLLKVAFKLFCHINLNHPKISVRVSAKYAEDCQNLMTELIAKKRQASESHAMEEDRVQLQKQRYRDHIEHQRQQELQREEEERVRRENLKIQRKEVLERTRKIISAPLAPDVPKKSAGNGRAKKNQENGDGKAKKSGPPKKKTRKRAAGKEQEDIEPLKKPKSKEFIDTDDDNSE | failed
2 | MEKNDIFVVIPAYNEEKMIKNTLINLKSHGYENIIVVDDGSRDNTSKIAISEEVIVCKHIINRGLGGALKTGLKCAVKYNPKVIVTFDADGQHDPEDIFKVSEPILEDSFDVVVGSRLIDENELKNMPLIKKIGNWGLNFITYLMGGRMVTDSQGGLRAFSYDAAEIVSKQLKSNRYEVSSEFIVLFKKNNLKFKEVPIKTIYTEYSMARGTNVITGFKILFKLLIQKLILEHHHHHH | not failed
3 | MEKNSLFSQRIRLRHLHTFVAVAQQGTLGRAAETLNLSQPALSKTLNELEQLTGARLFERGRQGAQLTLPGEQFLTHAVRVLDAINTAGRSLHRKEGLNNDVVRVGALPTAALGILPSVIGQFHQQQKETTLQVATMSNPMILAGLKTGEIDIGIGRMSDPELMTGLNYELLFLESLKLVVRPNHPLLQENVTLSRVLEWPVVVSPEGTAPRQHSDALVQSQGCKIPSGCIETLSASLSRQLTVEYDYVWFVPSGAVKDDLRHATLVALPVPGHGAGEPIGILTRVDATFSSGCQLMINAIRKSMPF | failed
4 | MEKQIFCQFLVVMMLLSSSQIQGDLRKGCYDLGITVLMGCPDSIDKKLPAPPTPSEGCCTLVRTIGMKCVCEIVNKKIEDTIDMQKLVNVAAACGRPLAPGSQCGSYRVPGA | failed
5 | MEKRELKASVPKFDKIPWLSEASLVNKPLVLSLPRRYPHTSATFLTSSKKNMNLPILFQVPDVLSKARRNQCDSMLLRNQQLCSTCQEMKMVQPRTMKIPDDPKASFENCMSYRMSLHQPKFQTTPEPFHDDIPTENIHYRLPILGPRTAVFHGLLTEAYKTLKERQRSSLPRKEPIGKTTRQ | failed
6 | MEKSKIINYWDKRAESFSKNKLAELESTHAQKWIEEINNINPIQPGMKILDIGTGAGFLAILCGNLGSDVTGIDLSPEMIQSAKQNAESHHQDIHFQVMDAESLQFNDETFDMVISRNVTWLLPNTKAAYQEWLRVLKPNGKLINIDANYGNDSFTDYKSLNTEHAHHTLGKDMLAESEAIKQNIPINHQPRPQTDMDILKSLGFDHIHLDTEIYLRMYSEQDEFYNPTPIFLISVTKSY | failed
7 | MELASPISSSFLEAFSRLSLERYSFLSIATSTIPSAAFLTTGFSSFNTSRAKLNASSMISGSLVLTTISFSTLRAETFFFSDFPFRMFLIQENIILATLIILAPRVATPSAAYSFIGSGLFSTIPINISESLVLISSGNSMKVTMAFIVSTACKTTVSSLSSNSLIRSGITSFTSSIPSSFFIASFFIMYRVPFFIKGSFSCNAFLSIDILFSLSSSTIWRAFLTLHPFKFSIYSS | failed
8 | MELETLFVIGMFLTFGALLMTGYPVAWVLGGTAVIWTVVGVVAVENFGANLWFDYQSSMGLVPERIWKVVSSETLVALPMFIFMGIMLDQSGVAERLMNSMVKLFGAVRGGYAVTVIVIGVLLAATTGIIGASVVLLGMLSLPVMMENKYDKGFAVGTACATGTLGILIPPSIMLVLMADRLAVPEASVGDLFMGAFFPGLMLGAMYVAYAIIRPMLQPNIAPVPEGTEKVSWAIVWDVAKAVVPTAALILGVLGSIFAGIATPTEASGVGALGALLLALMSGRLNLNVLNSSMQQTTRTAAFIFAIFLGATAFSVVLRGLGGDQVIEDALLGLPFGPYGVVLTILLGVFLLGFFLDWVEITLIILPLVAPVVQQLGFDLVWFTILFAMCLQTSFLTPPVGFALFYIKGVAPPEIKVTDIYRGVIPFIIIQLVALAIVFVVPEIATWLPGVAYD | failed
9 | MELGAYRWKAPVGYLDEYVKSFRERKIIGSLCASCGRVYVPPREICARCFTETAEKVEVSQYGEVLAFLVSPPLEKGKVVIAGIDAVQAGFLKEGEQIILAMVRFEGTSSSLVLPLINTEPEKVRVGMKVKAVWAEECKGKLADLIGVEPAFEVIYKLEHHHHHH | failed
10 | MELIFLGTSAGVPTRTRNVTAILLNLQHPTQSGLWLFDCGEGTQHQLLHTAFNPGKLDKIFISHLHGDHLFGLPGLLCSRSMSGIIQPLTIYGPQGIREFVETALRISGSWTDYPLEIVEIGAGEILDDGLRKVTAYPLEHPLECYGYRIEEHDKPGALNAQALKAAGVPPGPLFQELKAGKTITLEDGRQINGADYLAAPVPGKALAIFGDTGPCDAALDLAKGVDVMVHEATLDITMEAKANSRGHSSTRQAATLAREAGVGKLIITHVSSRYDDKGCQHLLRECRSIFPATELANDFTVFNV | failed
11 | MELKNVKDAFDRVTKKQKLCYSKTHEVVDKMSQEIDKALKTIQEDNHESVVADLKKTFEEIAPINLLEASQKEINGVLTKYPKALDKTLNPDISTAYRNVKFDTHTVHQILAQFFYRQGMYDVGDCFISETGEVKPESSVTKAFMEMNMILEAMKERDLGPALKWVASNSDKLKEAKSDLELKLHSLHFLEIAKDKTSEEAINYARKHFATYSADSCCFPEIQKLMCSLLWIRNLNKSPYSEFLSPVLWTNAAKELTRQYCILLGESPESPLSVTVAAGSQVLPTFLKYLNVLPEKRKEWQTMEQLLVPVELSEEYRFYSVFVCPVSKEHSSEDNPPMRLACGHVLCKQSINRMSRNGSRSFKCPYCPTDIDASQCKQLYF | failed
12 | MELMIGRVVKSHGIRGEVAIEVTTEEPEIRFAQGEVLNGRQGGKEHSLTIASVRPHQNRLLVKFKEIADRTAADSLRGTRFFAAPLDDDVDDGFYDHELEGLAVIHGEEKIGEVSGVIHGPAQSLLEVTLESGKEVLIPFVHDIVPEVDLDAGTCVITPPEGLLELLEHHHHHH | not failed
13 | MELPSFIFQAQENLVERPWGGEWIALLKGFRQSGIGESWEFSAHTSRPSTVLVKGQQLSMIELFSKHRDELLGRAAEKFSKFPILVRLIDAASPTQVHVHPSDKAAESLGEAEGGVESAWLVFNKGKAYAGFKEDVKIEELEEKLKEEDFDFKTLLNTFETTPYDTFVIRPGIPHAGEGLRVLEVSSNSTLAYFFNENDWEKVKKVLNTKKVEEFEVKGKKGMAETENFGLEVVDVTGTAEIKTGGVMNILYAAEGYFILRGKETADLHRGYSCLVPASTDSFTVESERGKIVRIYLKV | not failed
14 | MELSINILNIIGILLEIGVSIYIIISEKKKSKNRNSEAENDLIQQTNNIINNTQGDNASFNYTNVLMQSKYQERAYREILNDLGDKKENKQKSKYGKKCSYLRKVINIVCLGIGGFWAFYYFDLMKITSFNTYLLNVLFQTIYTLATFILIFSLSNFVKLFLIHFKEYNYIVLRKIQLFLTTLFALLGATIWLYFDWRANFRPLFNMYTESSYYTLGIIMLGLVFYVFHQMAQSFLLNNIWVPKKAVKILFVSLIFSLIASICLFI | failed
15 | MELTILILLLPFLSFLILGIGGKWMSHRTAGAIGTLILGAVVVLSYVTAFQYFSAPRLEDGTFATLIPYNFTWLPFTETLRFDLGILLDPISVMMLIVISTVSLMVHIYSFGYMKGETGFQRYYAFLSLFTMSMLGLVVATNIFQMYLFWELVGVSSYLLIGFYYTKPAAIAASKKAFIVTRFADLGFLIGILIYGYYGGTFGFTPDTVSLISGGASMLPLALGLMFIGGAGKSAMFPLHIWLPDAMEGPTPVSALIHAATMVVAGVYLVARMFPLFIAYAPDTLHMIAWVGAFTAFYAASVACVQSDIKRVLAFSTISQIGFMMVALGVCTSMDPHHGGLGYMASMFHLFTHAMFKALLFLGAGSIIHAVHSNEMSAMGGLRKYMPITHWTFLIACLAIAGIPPFSGFFSKDEILAACFQYSPAMGWVMTVIAAMTAFYMFRLYYGIFWGAEPPRASSHSDHSTPHGNLEAAPCRPHESPLAMTFPLIFLAVVTCLAGFIPFGHFISSNGESYSIHLDLSVAVTSVVIAIISIGIATWMYKNAKQPVANALAKRFNGLWTAAYHRFYIDDIYQFITHKIIFRCISTPIAWFDRHVVDGFFNFLAWATNTTSDEIRGLQSGQVQQYAYVFLCGALALILLLVL | failed
16 | MEMDTMFLAILIGAGLIGISVVTSLISFRVGAPLLLVFLGVGLLAGQDGIGGIVFNDSGTAYFIGSLALAVILFDSGFSTRLQTFRLAAAPSIVLATLGVALTTALVAIPSHSLLGLSWEESALMGAVVGSTDAAAVFFLLRVGGILIRDRVRATLEVESSTNDPMAIFLTITLVELASAGGFSGEALSWGLGLAFVRQMGLGLLCGWIGGHLLVVGINRLRLEPALYPILGLALALFLFAAVSMVDGSGFLAIYVAGMVMGNRKMRGGPALRRFQEALTWLAQMTMFLTLGLFASPSTFIDVALPSVLIGLFLVFVARPVAVWLCLLPFGYDRNETAFVAWVGLRGAVSILLAILPIAAGLEHAQEMFNAAFIVVVTSLLLQGWTIRPMARWLGLVVPPRLGPVDKVELQLPYGGDHELLVYRIAKGSPVAEGERIPRWARPSLVVRDGRSMKVLDSGRPQPGDHVYIFSAPRHGALLDRLFARPTALSPADEAYFGDFSLDASRTMGELATLYGIKVPEGAQDTAVGEWLTQRLGGAPARGDRVVLPPIEIIVREMDNSTDVIRTIGLSLDPGEGRPRRVPMFHNARDIIGSVRDWRAARRRFAAKNS | failed
17 | MEMEMINIRVLRFEPGVDEKPHLESYEIPSKEKMKVLDALQLINKIHGANIAFRSSCRAGQCGSCAVKMNGEVVLACRAEVEDGAIIEPIDLPVIKDLMVDRGEIEEKVKSMQLYLQASSEGIQRIRPEDYLDSKKLRGCIECFSCISSCPVIKESSEYAGPYFMRYLSKFAFDPRDTGDRAQEGVDKGLYCCTTCGKCAEVCPKELNVPGDAIEKLRAMACREGSGPLDAHRRIKKLISETGRSVDRIKDGFIESVGKNPGSRIGFFTGCLVDYRMPEVGMALLRVLREHGFDVDVPEGQVCCGSPMIRTGQVDIVEDLVEKNRKALRDYDTIITVCAGCGATLKKDYPRYGVKLNVLDISEFLADRIDTIKMKPVNMRVTYHDPCHLKRGQGVEFEPRKILRKIPGLEFVEMEKPDQCCGSGGGVKSGKPEVAEALGRKKADMIRELDVDAVVTICPFCQLHIRDSLDLAGLENVRVMNILELLDLAYSD | failed
